Results on two substances are retold here after article PMC3196555.

One assay concerns the target myc-SH2B3 (human) (UniProt Q9UQQ2). Put plainly: co-IP; 293T cells transfected with pCMV5-TrkA and a myc construct, 100 ng/ml NGF for 15 min; RIPA lysate precipitated with anti-myc antibody, blotted with anti-myc and anti-TrkA.
The next assay has as its target TrkA (UniProt P35739). Put plainly: co-IP; 293T cells transfected with pCMV5-TrkA and a myc construct, 100 ng/ml NGF for 15 min; RIPA lysate precipitated with anti-TrkA antibody, blotted with anti-TrkA and anti-myc.

TrkA, sequence (P35739 33-799): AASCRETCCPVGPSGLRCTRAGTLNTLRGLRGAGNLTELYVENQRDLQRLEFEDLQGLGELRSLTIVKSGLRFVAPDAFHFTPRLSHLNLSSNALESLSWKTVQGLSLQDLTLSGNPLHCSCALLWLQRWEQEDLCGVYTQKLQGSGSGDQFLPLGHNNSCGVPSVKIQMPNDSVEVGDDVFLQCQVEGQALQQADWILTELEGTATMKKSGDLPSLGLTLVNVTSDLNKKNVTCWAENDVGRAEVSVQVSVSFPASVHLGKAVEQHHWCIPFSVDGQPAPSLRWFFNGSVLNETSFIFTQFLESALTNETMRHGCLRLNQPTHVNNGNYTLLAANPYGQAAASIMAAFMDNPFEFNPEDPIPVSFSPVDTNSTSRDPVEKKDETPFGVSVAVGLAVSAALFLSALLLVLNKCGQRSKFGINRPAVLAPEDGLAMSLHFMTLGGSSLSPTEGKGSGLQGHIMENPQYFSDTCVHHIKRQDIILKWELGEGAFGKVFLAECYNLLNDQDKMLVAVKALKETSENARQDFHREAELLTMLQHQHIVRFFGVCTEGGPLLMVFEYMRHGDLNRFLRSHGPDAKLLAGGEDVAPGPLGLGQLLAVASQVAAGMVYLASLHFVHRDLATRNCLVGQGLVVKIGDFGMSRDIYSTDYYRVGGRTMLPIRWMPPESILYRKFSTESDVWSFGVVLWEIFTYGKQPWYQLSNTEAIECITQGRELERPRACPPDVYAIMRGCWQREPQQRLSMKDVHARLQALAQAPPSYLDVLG

For the substance “TrkA (from UniProt P35739 33-799) (receptor)”, the relative amount of TrkA co-precipitated, as percent of that with SH2B1β in the assay with myc-SH2B3 (human) was determined as 10%. The substance “myc-SH2B3 (from UniProt Q9UQQ2 1-575) (natural protein)” displayed a relative amount co-precipitated with TrkA, as percent of SH2B1β in the assay with TrkA of 88%.
